Values belong to the substance of their own block, whether it stands above or below them.
Columns and labels:
soluble Fc-tagged VEGFR3 = experiment: ELISA
decorin protein core = decorin protein core (UniProt P07585); experiment: ELISA

Chain of decorin protein core (P07585 31-359): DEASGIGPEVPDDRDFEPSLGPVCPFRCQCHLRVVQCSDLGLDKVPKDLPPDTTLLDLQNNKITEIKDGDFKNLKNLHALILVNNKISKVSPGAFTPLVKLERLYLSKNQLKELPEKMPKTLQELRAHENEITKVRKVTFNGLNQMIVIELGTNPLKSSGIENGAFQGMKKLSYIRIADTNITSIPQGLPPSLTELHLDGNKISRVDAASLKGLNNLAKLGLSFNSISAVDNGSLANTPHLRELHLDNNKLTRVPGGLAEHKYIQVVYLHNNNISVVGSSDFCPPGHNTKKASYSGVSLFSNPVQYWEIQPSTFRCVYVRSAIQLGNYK

percent of bound decorin protein core displaced (soluble Fc-tagged VEGFR3): 20%
Substance: VEGFC (from UniProt P49767 32-227) (ligand)

Kd (soluble Fc-tagged VEGFR3): 27 nM
Substance: decorin protein core (from UniProt P07585 31-359) (natural protein)

Kd (decorin protein core): 47 nM
Substance: soluble Fc-tagged VEGFR3 (Fc fusion)
